Assay results from publication PMC7272640, “Molecular docking, synthesis and biological evaluation of Vascular Endothelial Growth Factor (VEGF) B based peptide as antiangiogenic agent targeting the second domain of the Vascular Endothelial Growth Factor Receptor 1 (VEGFR1D2) for anticancer application” (Signal Transduction and Targeted Therapy, 2020).
Blank lines part the entries; values can stand above or below the molecule they belong to. Bridges are numbered along the chain shown (N, C = ends).

Legend:
[1] = target: entire extracellular portion of VEGFR1; settings: VEGFA to entire extracellular portion of VEGFR1; no reference given; cited from earlier work
Protocol: (§1) Subsequently, to verify the ability of VGB3 to form a complex with VEGFR1D2, microscale thermophoresis (MST) measurements were performed using a VEGFR1D2-labeled with VGB3 at increasing concentrations. As well as measuring the Kd between VGB3 and its receptor this functional test will also confirm whether the refolded protein VEGFR1D2 assumes the correct conformation. Fluorescently labeled VEGFR1D2 purified and titrated as 1:1 with VGB3.

VEGFR1 D2 = settings: quantity not named as Kd in the text; cited from earlier work
Protocol: as §1

VEGFR1 versus VEGFR2 = settings: cited from earlier work
Source text: Tumor angiogenesis is regulated by the binding of VEGF to receptors (VEGFRs). The major mediator of tumor angiogenesis is VEGFA, more commonly referred to as VEGF. […] However, the role of the VEGFR1 in VEGF-mediated angiogenesis remains a mystery.

[2] = target: VEGFR1 domain 2 (Homo sapiens) (UniProt P17948); settings: cited from earlier work
[3] = target: T1, His-tagged VEGFR1D2 (second extracellular domain of Vascular Endothelial Growth Factor Receptor 1) (UniProt P17948 129-226, fluorescently labeled); assay: MST; fixed concentration of fluorescently labeled VEGFR1D2; VGB3 titrated at increasing concentrations, initial concentration of ligand 0.25 mM; settings: both partners purified
T1 construct: VEGFR1 (Flt-1), second extracellular domain; The PDB entries are the cited complexes of VEGFR1D2 used for the design, not necessarily the limits of this construct

[4] = target: VEGFR-1 (as used in the ELISA-based displacement assay) (UniProt P17948)
[5] = target: VEGFR-1 (as used in the ELISA-based displacement assay) (UniProt P17948); assay: ELISA; VEGFR-1-binding ELISA-based displacement assay; displacement of btVEGF165 (100 pM) by VGB3

Sequence of VEGFR-1 (as used in the ELISA-based displacement assay) (P17948 27-1338): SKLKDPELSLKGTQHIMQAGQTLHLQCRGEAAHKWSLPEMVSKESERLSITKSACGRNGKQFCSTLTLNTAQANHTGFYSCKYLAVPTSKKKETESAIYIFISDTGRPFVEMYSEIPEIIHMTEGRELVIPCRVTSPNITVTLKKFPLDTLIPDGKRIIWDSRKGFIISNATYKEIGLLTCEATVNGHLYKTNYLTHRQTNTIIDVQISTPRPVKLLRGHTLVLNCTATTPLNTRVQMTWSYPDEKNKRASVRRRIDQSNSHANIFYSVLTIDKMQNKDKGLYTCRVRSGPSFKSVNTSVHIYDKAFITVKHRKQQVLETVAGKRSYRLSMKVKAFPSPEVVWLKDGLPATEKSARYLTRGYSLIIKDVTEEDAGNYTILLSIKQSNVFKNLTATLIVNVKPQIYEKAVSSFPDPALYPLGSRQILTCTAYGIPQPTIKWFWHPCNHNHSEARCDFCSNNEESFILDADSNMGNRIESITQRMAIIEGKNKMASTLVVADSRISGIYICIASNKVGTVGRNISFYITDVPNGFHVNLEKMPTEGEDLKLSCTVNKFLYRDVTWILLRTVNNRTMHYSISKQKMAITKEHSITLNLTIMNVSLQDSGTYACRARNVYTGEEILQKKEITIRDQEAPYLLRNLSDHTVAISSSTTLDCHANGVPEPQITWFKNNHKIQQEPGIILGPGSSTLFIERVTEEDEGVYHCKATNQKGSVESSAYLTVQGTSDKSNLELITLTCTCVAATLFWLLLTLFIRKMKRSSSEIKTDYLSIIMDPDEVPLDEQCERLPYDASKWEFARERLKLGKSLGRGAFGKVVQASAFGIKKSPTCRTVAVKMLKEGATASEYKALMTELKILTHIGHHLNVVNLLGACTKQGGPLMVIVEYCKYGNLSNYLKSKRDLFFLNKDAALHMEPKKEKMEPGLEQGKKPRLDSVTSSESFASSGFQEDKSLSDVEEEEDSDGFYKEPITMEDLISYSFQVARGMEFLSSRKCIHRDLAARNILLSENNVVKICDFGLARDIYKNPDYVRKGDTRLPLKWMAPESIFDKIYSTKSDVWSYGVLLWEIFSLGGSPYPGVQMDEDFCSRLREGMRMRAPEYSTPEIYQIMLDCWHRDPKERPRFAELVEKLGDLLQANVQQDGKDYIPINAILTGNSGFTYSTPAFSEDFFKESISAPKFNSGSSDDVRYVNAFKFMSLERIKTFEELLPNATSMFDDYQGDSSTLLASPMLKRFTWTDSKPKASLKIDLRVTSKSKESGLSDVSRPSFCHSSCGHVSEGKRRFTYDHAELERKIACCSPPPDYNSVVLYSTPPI
T1 sequence (P17948 129-226): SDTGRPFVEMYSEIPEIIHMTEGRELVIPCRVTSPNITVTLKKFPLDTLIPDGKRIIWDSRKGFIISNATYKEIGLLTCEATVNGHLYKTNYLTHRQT
Sequence of VEGFR1 domain 2 (Homo sapiens) (P17948 151-214): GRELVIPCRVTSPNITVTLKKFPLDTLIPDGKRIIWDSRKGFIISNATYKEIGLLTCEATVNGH

Molecule: VEGF
Kd [1]: ~50 nM
tight association between VEGFR1 D2 and VEGF (VEGFR1 D2): 113 pM
affinity of VEGFR1 for VEGF, times higher than VEGFR2 (VEGFR1 versus VEGFR2): 10 times

Molecule: VEGFA (from UniProt P15692)
Kd [2]: 50 nM

Kd [3]: 1960 ± 690 nM
stoichiometry N [3]: 1
inhibition of VEGF165 (0.75 pM)-stimulated proliferation of 4T1 mammary carcinoma cells (MTT assay), IC50 [4]: 30 nM
percent displacement of btVEGF165 (100 pM) at 100 μM VGB3 [5]: 63%
B1: VGB3 (mimetic decapeptide based on VEGFB) (peptide)
peptide: H-ECRPPDDGLC-OH
modifications: disulfide 2-10 (inferred)
notes: VEGFB, strand beta7, printed as 102-ECRP-105; VEGFB, loop connecting beta3 to beta4, printed as 62-PDDGL-66; Cys residue added to the C terminus to make the disulfide bond; also called VGB3 peptide; source: synthetic peptide (solid-phase peptide synthesis)
